The chains are these.
B1: … (peptide)
peptide: RRRRRRRRRRPIIRIRHYP
B2: rfyyhrr (peptide)
peptide: [dR][dF][dY][dY][dH][dR][dR]
B3: … (peptide)
peptide: PRRRRRRRRRRPIIRIRHYRP
B4: … (peptide)
peptide: RRRRRRRRRRPILTRITLE
B5: kfrfyhr (peptide)
peptide: [dK][dF][dR][dF][dY][dH][dR]
B6: … (peptide)
peptide: PRRRRRRRRRRPIWTIKLWHP
B7: yqwyrwq (peptide)
peptide: [dY][dQ][dW][dY][dR][dW][dQ]
B8: qqryywr (peptide)
peptide: [dQ][dQ][dR][dY][dY][dW][dR]
B9: … (peptide)
peptide: RRRRRRRRRRPIIRIRHYR
B10: … (peptide)
peptide: PRRRRRRRRRRPILRIRYWKP
B11: … (peptide)
peptide: RRRRRRRRRRPIIRIRHYRP
B12: … (peptide)
peptide: PRRRRRRRRRRPITRIRFYRP

Non-standard residues stand in square brackets, D forms with d. No end group written: not given here.

The first experiment concerns the target Protein in Human Serum. The experiment is described as follows: protein binding in human serum; method not described.
Molecule rrrrrrrrrrpiyqwyrwq (peptide) yielded a % Protein Binding in Human Serum of 99%.
The same measure, in the same setting: under B1 stands 83%; under B2, 91%; under B3, 89%.
The molecule B4 had a % Protein Binding in Human Serum of 66%.
Still for that read-out and setting: then B5, with 81%; and B6, with 100%.
On the same count and under the same terms, then B7, with 98%; and B8, with 82%.
Still for that read-out and setting: then B9, with 84%; and B10, with 98%; and B11, with 81%.
In turn, B12 displayed a % Protein Binding in Human Serum of 89%.

The target in the next experiment is T1, Nat1 (LTIITLE) (also: TFA salt).
T1 peptide: LTIITLE
The experiment in a line: cell-based or functional assay.
Consider B2, for which the “IC50, Thiofiavin T aggregation assay” value stood at 76 nM.
On the same count and under the same terms, under B5 stands 32 nM; under B7, 194 nM; under B8, 95 nM.

The values are drawn from US20200062804A1 (ADRX, published 2020).
